In the DeepSol protein solubility set:

test: soluble on expression in E. coli; label from the status in PepcDB or PDB records

Soluble on expression in E. coli, soluble:
MGSDKIHHHHHHMKMEELFKKHKIVAVLRANSVEEAKEKALAVFEGGVHLIEITFTVPDADTVIKELSFLKEKGAIIGAGTVTSVEQCRKAVESGAEFIVSPHLDEEISQFCKEKGVFYMPGVMTPTELVKAMKLGHTILKLFPGEVVGPQFVKAMKGPFPNVKFVPTGGVNLDNVCEWFKAGVLAVGVGSALVKGTPDEVREKAKAFVEKIRGCTE, GDTRPRFLQQDKYECHFFNGTERVRFLHRDIYNQEEDLRFDSDVGEYRAVTELGRPDAEYWNSQKDFLEDRRAAVDTYCRHNYGVGESFTVQRRVEPKVTVYPARTQTLQHHNLLVCSVNGFYPGSIEVRWFRNSQEEKAGVVSTGLIQNGDWTFQTLVMLETVPRSGEVYTCQVEHPSVTSPLTVEWRAQS, MSLITQRSSMIGVVTAGFENPLRARLLSDLMAVLGQRAFTPLVTNADDPQQLRQALERLLSYRVAGLVMTSASPPLSVARQYLAHRIPVVMINREANLAGADVVVSDNAAGAAEAAQRLVHAGARRLAFVGPHTASFSARSRADAFAHALQRGNMSGATLASVIDTASDTHACGLDAAQQLFAAGHRPDGVFCSSDLLALGVIDAARAAFGLRVPDDVRVIGFDDIPAAAYHAYRLTTLRQDTQGLAHAAVDLLADRISAFDGASRTRVVPVTHVVRHSCAEGHHHHHH, MSLQSSVKTERQYLSGRGCDDMVQWDFMCTGGNNSGKWTKIGVPSCWELQGFGTYQYGMKFYGKAFPEGVADEQGLYKYEFELPAEWNGKQIELVFEGSMTDTQVKINGRKAGSMHQGAFYRFIYNVSDRVFFGSKKKNVLEVTVSKESANAGVNLAERRADYWNFGGIFRPVFIVAKPAQNIDRLVIDAKADGNFYADCFLNMAVEGARVHTVITDAKGKKVAENTSDVRTGSDHASINFAVKSPELWTAETPAMYQATFTLLDKAGKTLHVENQKFGFRTIETRESDGLYINGRRVMIKGVNRHSFRPESGRTLSKAKNIEDVLLIKSMNMNAVRLSHYPADPEFFEACDSLGLYVMDELSGWHGKHETINGQKLVKEMITRDVNHPCIIWWSNGNEKGWNTELDGEFHKYDPQKRPVLHPQGNFSGYETMHYRSYGESQNYMRLPEIFMPTEFLHGLYDGGHGAGLYDYWEMMRKHPRCAGGFLWVLADEGVKRVDMNGFIDNCGNYGADGIVGPHHEKEGSYFTIKQVWCPIQIMTDSLDSQFDGKLKIENRYDFLNANTCRFTYKYVQLPSVTDKGGMKVMKQGEVNCPDIPAHGAGTLTIPAAVKGANALMLTVTDKQGNDLFTWSYKLDDVAGLQQVSAGNKPSYKETADALTVDAEGRTFTFSQKDGQLKGVKVGSRIISLANGPRFIAAKRSDRSMDQFYNHDDKEAEKKKTQYTTFDDAGRFTGFTVREEGNNVVVTANYKLGCFDQAVWTIAPDGTAAIDFTYNFSGVVDLMGVMFDYPEDKVLSKRWVGDGPYRVWQNRLHGPQLGVWENEYNDPIPAESFTYPEFKGYFANVQWMTLKTQEGTISICNRTPQNYVGVYQPRDGRDGLLYTFPATGISLMKVIPPVRNKVNTTDLIGPSSQAFWADGAYGGGITLKFEEGHHHHHH, AIAREWKSQDAWKQHSLRLCFGVWPGTEFLHRPRAVHRRSGVVCSQMQTEDSHPETPQVPKESLQEEKDSSPATDASFIQSQDGKTVFLDRRTERRIQRGFVLTERGPRSIWKPAGTSSQRNERVPRRAAARGGAGPPDTTPQLATVRVLVLGANHVAQRLAELLSSHSRVCGCYFVSETTDEAAIESMKKYAYALPLRSALNDDEVVRVAEWVLADYVFLVPTGETHDDGVSLKDKERLERTLAQNRVTFMDENLTGLLLENPSLIDALFRARDSLEA, MRKLNNHDVHKRYQDRLEEDVEFTINYELPLSCLWSTIKDFSSDFEEKTEAFFILFKELLRRGHLKLQRDGQIIGHTPEEWEQIFREVWPEYEIEPNPLPGYAPFDIGMWLTVEAPAYAVWIDPEDGSEYWAG, MKLWAIYFEPEDWVGFRETRRFSFSDRVESVFPSSFPFYGAVRTALLMKNQKFDPGDVERAGDVRMFGPFVFENTPEGRKHYFPLPRNIYKTDSGYRVTPIVEIDGVYLPWKPEYKMDSKESTSGGLIELSDLELLRSNTQGVCKFDLVSAEKIFKKETHIGVAFEENRKKVKERMIYSISYYRFYDGGFFMFTDDERTVELVSKLDGVFLGMKSKWSAVEVEELNTTAFDPPDYKNVAVALITPAVFDGGGMPKDKTILGKRVLTTAGIRKQVVSGWDLRENKPKKIYHAVSPGAVYYLEGKVNGHVLNESKFTDFGFGRCIFMKYEKL, MEGWQRAFVLHSRPWSETSLMLDVFTEESGRVRLVAKGARSKRSTLKGALQPFTPLLLRFGGRGEVKTLRSAEAVSLALPLSGITLYSGLYINELLSRVLEYETRFSELFFDYLHCIQSLAGVTGTPEPALRRFELALLGHLGYGVNFTHCAGSGEPVDDTMTYRYREEKGFIASVVIDNKTFTGRQLKALNAREFPDADTLRAAKRFTRMALKPYLGGKPLKSRELFRQFMPKRTVKTHYE

Soluble on expression in E. coli, not soluble:
DKFFIWGKRIDYNALKTTLIKKAQDENLLHFTPKISLVEDGFIRSISLGSDLTRPFSLIVDDKGLYIDPNKASKLEELLQNEIFDENMLNRAKNIIKILLENRFSKYNGLKHEDLKINAKIGQKIILIPAQVEDDASMILGGFGLSTLDLLKEVRAKNQDAYIIFKPHPDVLSGNRVGLKDETLILEFCDEIVKDCSIDSAIKIADEIHTITSTSGFDALLRAKKVFTYGMPFYAGWGLTKDKYRCERRIRKLSLEELVAGALIIYPRY, MCLILTAWHAHPAYALVVAANRDEFYDRPAAPLAWWSDAPHVLAGRDLAQVVGHAGTWMGMTRDGRFAALTNYRAPSERRPDARSRGELVANFLAAEDASIPAYLDQLKARNGVYNGYNLLTATRDELWWTSNRAEAPRQLAPGVYGLSNALLDTPWFKVRHRVAAFAEALAADTGRHGNAIDVARYLDLLAETREAPLGALPATGVAPEWEKLLSAAFIRSPRYGTRASTVLRIRHDGCFDVTERRFDAQGQIGETRYLGVLDAVTQADTPLEHHHHHH, MAHHHHHHMTRKVAGDMWDSRVEASLPALNYLRTAQQLQKKADELSRAQERVHRLQEDNSALLLENELLKRERDALLCKVQFLELNEHGHCTTNDIVGPWGNVRSVPAGGLGSTTGGDLSPVFKDNVNKASETRVNISEQARTHTNSEQQDLHNPKEETILCPLSASSETLINTNRPDANIETFHRSTESHVEYCANGECRSPISMTRTTQTVAYERRVPSVERGTMTTMNIYICSYQSLPSKAGAFFEVPLSNVETAIHHDPESLTSITIPRS, METKKTLREGYTTGSCATVATKAALTALITGQVQAEATIRLPIGRVVTFSLASCSFDGETATASVVKDGGDDPDATHGALIVSTVSWTSSPGVHIDGGEGVGRVTKPGLPVPVGEAAINPVPRQMIREAVNEVLAQYGLHRGVKVVISVPGGEEIAKKTLNPRLGIIGGISILGTRGIVVPFSTAAYRASIVQALQVAKANGCRHVVITTGGRSEKYAMQEYPHLPEEAFIEMGDFVGFTLKQCKRLGIKMVSMVGMMGKFSKVAQGVMMVHSKSAPVDFGFLAAIAEQAGACPELVAAVRGANTAAQVGDMMQEAGCTKFFELLCEACCQAALHEVGGGLTVATSIYTMNGQRLGKAVQTDGDDEVDRCRC, MLPSKYEDNALQIKEKSTERTAPFFVLEVTARSAADILGIHPNSAALFYRKIRTVINHHLALAADEVFEGPVEPDESDFGGRRKGRRGRGAAGKVVVFGILKRNGRVYTVVVDNAKSETLLPVIKKKIMPDSIVYTDSLSSYDKLDVSGFIHYRINHSKECADRQNHINGIENFWNQAKRVLRKYNGIDRKSFPLFLKECEFRFNFGTPSQQLKILRDWCGILEHHHHHH, MHSQQRPNPQMNRHPYGTPGSAPQMRRPGGFAGQPPQMHGPRMVAPPAAPLPKKKKYADKCIHPKIRELEPDAENYMALLASEQKLDSTLSRKKLDIQEALKRPSKVKKRLRIYISHTFIEEKQPEKDTDEASLPMWELRVEGRLLDEQPPAPAIPGQRPVPKRKFSSFFKSLVIELDKEMYGPDQHLVEWHRTPQTNETDGFQVKRAGDRPVKCRILLLLDNHPAKFKLHPRLAKVLGIATETRPKIIEALWQYIKTHGLQDPQERDIINCDTFLSQCFGVNRMRFMEVPNKLHQLLQQTDPLEFNHIIQRPKEGQEQVSTCYDIDVEMEDPVKQFMHTFVHSPGLANDIQTLDQKCYDIIEQINELKTRRDFYARFYTEPAEFIKSWVMSQNSDLKTMNELSGDLEAERFAESYVRPETEEGVQRYMFQKVNQKRHELEQSLGVRSN, MILVDSDVLIAHLRGVVAARDWLVSARKDGPLAISVVSTAELIGGMRTAERREVWRLLASFRVQPATEVIARRAGDMMRRYRRSHNRIGLGDYLIAATADVQDLQLATLNVWHFPMFEQLKPPFAVPGHRPRA, MDKRIENAMNELINTEIWSTGLYLSLQVYFEDERLPILSSWLNSQAQDNMNKVYQMMNRICHDGGCVVINEMKRDTHEWTTPLNALNELLEHEQYISRQVNTFLILCWNVSMSFHSFISGLYADRIYVSTAFMELLRILAKENERKLPYF, MAAQSDRYDAVLVQYGLRPVRMEQRGKAVKVYTNRGVFALKPLESEQEAAAVWQSLQHGGPRCLPLYLTRRRSLFATEGGRLYYLQAWHDGESKVEKDAADAFFRELARLHRATVRTIEVSEEEAAAYRKQKKDEWQRARTVWEERIERYEAAWYMSPFQLQCCTYFHEVMRAYSFAEERLDVWEETLKETKQWRIAWVHGKARLSHYIPPYWISWERAHWNSPLFDVIAALRFHVQTMPPLGREWLEGMEEYEKELPLSDGERAFLYSHLAEPRGFVRCLERYEAASRNERNEREYVAALQRRYLAFKNMEALVMHLVQRDAARQQEEAVDNEPPSDESSNG, MAHHHHHHMREARERARIAEAEADSAMEAADRAILEELLRKDEEERRAAAEREAAARRAAEERAAAERLKAEDEARQAAEAARQRALEEERQRQRESAKQAAKSQLHDEPSTDVATSETVQISVRCPSGKHYDRRFLRSDLVDQLTFFVLTLDEVADATDASTVRFVTGFPPAPLVWREGETRFGDVKSLCPRAVVLLRRL, MGFFNFIKTVGEKLGIGDSEPTEKDFKTAFDNFQLGTEKVNIQVENGKVVLSGEVPDRETLEKALLVVGNAQGISSVDIGQLKVADTACMKASRFYEVKSGDNLWKIAEEVYGKGQGDKNTFIFEANKPMLKSPDKIYPGQVLRIPEIDRA, MGSDKIHHHHHHMGLLYRETYEVPFYESDTNHYMKLPQLLALALQISAKQSLKLGIGDDIVFKRYGLVWVVTDYIIDIERLPKHAEKIVIETEAKAHNKLLCYRYFYIYGEDGQKIITISSAFVLMDFKTRKIHPVLDDITSIYQSQRIKKVIRGPKYHPIGDSKVKQYHVRYFDLDMNGHVNNSKYLEWMYDVLDLDFLSSHIPKKIDLKYIKEIQYGTDIKSHWYQDGLVTRHDIIGGDAIHAQARIEWQEKKED, MGVVHDVWRATKELLEATALPWPSEEREERLAAVDRLLREREELLRKLRPPYSEEEQELGREIIVWNQEIEARLLRVCEEIRRDLRMTGAKRQANARYVHPYEQPLSFDGMFYDKRR
